Measurements as given in paper PMC7721913 (The Journal of Cell Biology, 2020).

B1: KIF3C: kinesin transporting RNA granules in neurons (protein, UniProt O55165 1-796, looked up)
Kinesin-like protein KIF3C: MASKTKASEALKVVARCRPLSRKEEAAGHEQILTMDVKLGQVTLRNPRAAPGELPKTFTFDAVYDASSKQADLYDETVRPLIDSVLQGFNGTVFAYGQTGTGKTYTMQGTWVEPELRGVIPNAFEHIFTHISRSQNQQYLVRASYLEIYQEEIRDLLSKEPGKRLELKENPETGVYIKDLSSFVTKNVKEIEHVMNLGNQARAVGSTHMNEVSSRSHAIFVITVECSERGSDGQDHIRVGKLNLVDLAGSERQNKAGPNTPGGPATQSTAGGGGGGGGTSGSGSSGERPKEASKINLSLSALGNVIAALAGNRSTHIPYRDSKLTRLLQDSLGGNAKTIMVATLGPASHSYDESLSTLRFANRAKNIKNKPRVNEDPKDTLLREFQEEIARLKAQLEKKGMLGKRPRRKSSRRKKAVSAPAGYPEGAVIEAWVAEEEDDNNNNHRPPQPTLEAALEKNMENYLQEQKERLEEEKAAIQDDRSLVSEEKQKLLEEKEKMLEDLKREQQATELLAAKYKAMESKLLIGGRNIMDHTNEQQKMLELKRQEIAEQKRREREMQQEMLLRDEETMELRGTYSSLQQEVEVKTKKLKKLYAKLQAVKAEIQDQHEEYIRVRQDLEEAQNEQTRELKLKYLIIENFIPPEEKNKIMNRLFLDCEEEQWKFQPLVPAGVNNSQMKKRPTSAVGYKRPISQYARVAMAMGSHPRYRAENIMFLELDVSPPAIFEMEFSHDQEQDPRVLHMERLMRLDSFLERPSTSKVRKSRSWCQSPQRPPPPSTVHASMASAPLHPATVVDHD
B2: KIF5C: kinesin heavy chain KIF5C (protein, UniProt O60282 1-957, looked up)
Kinesin heavy chain isoform 5C: MADPAECSIKVMCRFRPLNEAEILRGDKFIPKFKGDETVVIGQGKPYVFDRVLPPNTTQEQVYNACAKQIVKDVLEGYNGTIFAYGQTSSGKTHTMEGKLHDPQLMGIIPRIAHDIFDHIYSMDENLEFHIKVSYFEIYLDKIRDLLDVSKTNLAVHEDKNRVPYVKGCTERFVSSPEEVMDVIDEGKANRHVAVTNMNEHSSRSHSIFLINIKQENVETEKKLSGKLYLVDLAGSEKVSKTGAEGAVLDEAKNINKSLSALGNVISALAEGTKTHVPYRDSKMTRILQDSLGGNCRTTIVICCSPSVFNEAETKSTLMFGQRAKTIKNTVSVNLELTAEEWKKKYEKEKEKNKTLKNVIQHLEMELNRWRNGEAVPEDEQISAKDQKNLEPCDNTPIIDNIAPVVAGISTEEKEKYDEEISSLYRQLDDKDDEINQQSQLAEKLKQQMLDQDELLASTRRDYEKIQEELTRLQIENEAAKDEVKEVLQALEELAVNYDQKSQEVEDKTRANEQLTDELAQKTTTLTTTQRELSQLQELSNHQKKRATEILNLLLKDLGEIGGIIGTNDVKTLADVNGVIEEEFTMARLYISKMKSEVKSLVNRSKQLESAQMDSNRKMNASERELAACQLLISQHEAKIKSLTDYMQNMEQKRRQLEESQDSLSEELAKLRAQEKMHEVSFQDKEKEHLTRLQDAEEMKKALEQQMESHREAHQKQLSRLRDEIEEKQKIIDEIRDLNQKLQLEQEKLSSDYNKLKIEDQEREMKLEKLLLLNDKREQAREDLKGLEETVSRELQTLHNLRKLFVQDLTTRVKKSVELDNDDGGGSAAQKQKISFLENNLEQLTKVHKQLVRDNADLRCELPKLEKRLRATAERVKALESALKEAKENAMRDRKRYQQEVDRIKEAVRAKNMARRAHSAQIAKPIRPGHYPASSPTAVHAIRGGGGSSSNSTHYQK
B3: KLC1: kinesin light chain 1 (protein)
chain: MHDNMSTMVYMKEEKLEKLTQDEIISKTKQVIQGLEALKNEHNSILQSLLETLKCLKKDDESNLVEEKSSMIRKSLEMLELGLSEAQVMMALSNHLNAVESEKQKLRAQVRRLCQENQWLRDELANTQQKLQKSEQSVAQLEEEKKHLEFMNQLKKYDDDISPSEDKDSDSSKEPLDDLFPNDEDDPGQGIQQQHSSAAAAAQQGGYEIPARLRTLHNLVIQYASQGRYEVAVPLCKQALEDLEKTSGHDHPDVATMLNILALVYRDQNKYKDAANLLNDALAIREKTLGRDHPAVAATLNNLAVLYGKRGKYKEAEPLCKRALEIREKVLGKDHPDVAKQLNNLALLCQNQGKYEEVEYYYQRALEIYQTKLGPDDPNVAKTKNNLASCYLKQGKFKQAETLYKEILTRAHEREFGSVDDENKPIWMHAEEREECKGKQKDGSSFGEYGGWYKACKVDSPTVTTTLKNLGALYRRQGKFEAAETLEEAALRSRKQGLDNVHKQRVAEVLNDPENVEKRRSRESLNVDVVKYESGPDGGEEVSMSVEWNGMRKMKLGLVK
B4: KLC1 or its C-terminal mutant (ΔTail) (protein, UniProt P37285 1-560, looked up)
Kinesin light chain 1: B3 chain
modifications: or C-terminal tail deletion mutant
B5: WT KIF5A: kinesin heavy chain KIF5A (protein, UniProt Q6QLM7 2-1027, looked up)
Kinesin heavy chain isoform 5A: AETNNECSIKVLCRFRPLNQAEILRGDKFIPIFQGDDSVIIGGKPYVFDRVFPPNTTQEQVYHACAMQIVKDVLAGYNGTIFAYGQTSSGKTHTMEGKLHDPQLMGIIPRIARDIFNHIYSMDENLEFHIKVSYFEIYLDKIRDLLDVTKTNLSVHEDKNRVPFVRGCTERFVSSPEEILDVIDEGKSNRHVAVTNMNEHSSRSHSIFLINIKQENIETEQKLSGKLYLADLAGSEKVSKTGAEGAVLDEAKNINKSLSALGNVISALAEGTKSYVPYRDSKMTRILQDSLGGNCRTTMFICCSPSSYNDAETKSTLMFGQRAKTIKNTASVNLELTAEQWKKKYEKEKEKTKAQKETIAKLEAELSRWRNGENVPETERLAGEDSALAAEICEETPVNDNSSIVVRIAPEERQKYEEEIRRLYKQLDDKDDEINQQSQLIEKLKQQMLDQEELLVSTRGDNEKVQRELSHLQSENDAAKEEVKEVLQALEELAVNYDQKSQEVEEKSQQNQLLVDELSQKVATMLSLESEPQRLQEVSGHQRKRIAEVLNGLMKDLSEFSVIVGNGEIKLPVEISGAIEEEFTVARLYISKIKSEVKSVVKRCRQLENLQVECHRKMEVTGRELSSCQLLISQHEAKIRSLTEYMQTVELKKRHLEESYDSLSDELAKLQAQETVHEVALKDKEPDTQDAEEVKKALELQMENHREAHHRQLARLRDEINEKQKTIDELKDLDQKLQLELEKLQADYERLKNEENEKSAKLQELTFLYERHEQSKQDLKGLEETVARELQTLHNLRKLFVQDVTTRVKKSAEMEPEDSGGIHSQKQKISFLENNLEQLTEVHKQLVRDNADLRCELPKLEKRLRATAERVKALEGALKEAKEGAMKDKRRYQQEVDRIKEAVRYKSSGKRGHSAQIAKPVRPGHYPASSPTNPYGTRSPECISYTNNLFQNYQNLHLQAAPSSTSDVYFASNGATSVAPLASYQKANTDNGNATDINDNRSDLPCGYEAEDPAKLFPLHQETAAS
B6: KLC2: kinesin light chain 2 (protein, UniProt Q9H0B6 1-622, looked up)
Kinesin light chain 2: MAMMVFPREEKLSQDEIVLGTKAVIQGLETLRGEHRALLAPLVAPEAGEAEPGSQERCILLRRSLEAIELGLGEAQVILALSSHLGAVESEKQKLRAQVRRLVQENQWLREELAGTQQKLQRSEQAVAQLEEEKQHLLFMSQIRKLDEDASPNEEKGDVPKDTLDDLFPNEDEQSPAPSPGGGDVSGQHGGYEIPARLRTLHNLVIQYASQGRYEVAVPLCKQALEDLEKTSGHDHPDVATMLNILALVYRDQNKYKEAAHLLNDALAIREKTLGKDHPAVAATLNNLAVLYGKRGKYKEAEPLCKRALEIREKVLGKFHPDVAKQLSNLALLCQNQGKAEEVEYYYRRALEIYATRLGPDDPNVAKTKNNLASCYLKQGKYQDAETLYKEILTRAHEKEFGSVNGDNKPIWMHAEEREESKDKRRDSAPYGEYGSWYKACKVDSPTVNTTLRSLGALYRRQGKLEAAHTLEDCASRNRKQGLDPASQTKVVELLKDGSGRRGDRRSSRDMAGGAGPRSESDLEDVGPTAEWNGDGSGSLRRSGSFGKLRDALRRSSEMLVKKLQGGTPQEPPNPRMKRASSLNFLNKSVEEPTQPGGTGLSDSRTLSSSSMDLSRRSSLVG
B7: KIF5B: kinesin heavy chain KIF5B (protein, UniProt P33176 2-963, looked up)
Kinesin-1 heavy chain: ADLAECNIKVMCRFRPLNESEVNRGDKYIAKFQGEDTVVIASKPYAFDRVFQSSTSQEQVYNDCAKKIVKDVLEGYNGTIFAYGQTSSGKTHTMEGKLHDPEGMGIIPRIVQDIFNYIYSMDENLEFHIKVSYFEIYLDKIRDLLDVSKTNLSVHEDKNRVPYVKGCTERFVCSPDEVMDTIDEGKSNRHVAVTNMNEHSSRSHSIFLINVKQENTQTEQKLSGKLYLVDLAGSEKVSKTGAEGAVLDEAKNINKSLSALGNVISALAEGSTYVPYRDSKMTRILQDSLGGNCRTTIVICCSPSSYNESETKSTLLFGQRAKTIKNTVCVNVELTAEQWKKKYEKEKEKNKILRNTIQWLENELNRWRNGETVPIDEQFDKEKANLEAFTVDKDITLTNDKPATAIGVIGNFTDAERRKCEEEIAKLYKQLDDKDEEINQQSQLVEKLKTQMLDQEELLASTRRDQDNMQAELNRLQAENDASKEEVKEVLQALEELAVNYDQKSQEVEDKTKEYELLSDELNQKSATLASIDAELQKLKEMTNHQKKRAAEMMASLLKDLAEIGIAVGNNDVKQPEGTGMIDEEFTVARLYISKMKSEVKTMVKRCKQLESTQTESNKKMEENEKELAACQLRISQHEAKIKSLTEYLQNVEQKKRQLEESVDALSEELVQLRAQEKVHEMEKEHLNKVQTANEVKQAVEQQIQSHRETHQKQISSLRDEVEAKAKLITDLQDQNQKMMLEQERLRVEHEKLKATDQEKSRKLHELTVMQDRREQARQDLKGLEETVAKELQTLHNLRKLFVQDLATRVKKSAEIDSDDTGGSAAQKQKISFLENNLEQLTKVHKQLVRDNADLRCELPKLEKRLRATAERVKALESALKEAKENASRDRKRYQQEVDRIKEAVRSKNMARRGHSAQIAKPIRPGQHPAASPTHPSAIRGGGAFVQNSQPVAVRGGGGKQV

How the values were obtained:
[1] = system: SFPQ; experiment: Coimmunoprecipitation of endogenous SFPQ from DRG lysate, Western blot; type: binding, rat; conditions: DRG sensory neuron lysate
[2] = system: CB and distal axon compartments of DRG neurons; experiment: Western blot of KIF5 and KLC in cell body and distal axon lysates; type: cell-based, rat; conditions: Campenot CB vs distal axon lysates
[3] = system: SFPQ; experiment: PRM-based quantification of KIF5 and KLC in SFPQ immunoprecipitations; type: binding, rat; conditions: KIF5A vs KIF5B or KIF5C, KLC1 vs KLC2; three independent experiments
[4] = system: HA-SFPQ; experiment: Coimmunoprecipitation of HA-SFPQ with KLC1/KIF5A constructs in HEK 293T cells; conditions: Myc-KLC1 without C-terminal region vs WT, n = 4, P = 0.0033
[5] = system: DRG neurons; DRGs and sciatic nerve of P1 mice; experiment: Immunostaining of KIF5s in DRG neurons, DRGs and sciatic nerve; design: species or system rat; mouse; conditions: microfluidic DRG neurons, DRGs and sciatic nerves in vivo

Molecule | coimmunoprecipitation with SFPQ (in words) [1] | compartment localization (in words) [2] | other results
B1 | none of these kinesins significantly coimmunoprecipitates with SFPQ | – | –
B2 | – | localize to both CB and distal axon compartments | –
B3 | preferentially coimmunoprecipitates | localize to both CB and distal axon compartments | relative abundance in SFPQ immunoprecipitate (in words) [3]: approximately twice as abundant
B4 | – | – | reduction of binding to SFPQ [4]: ~50%
B5 | preferentially coimmunoprecipitates | localize to both CB and distal axon compartments | relative abundance in SFPQ immunoprecipitate (in words) [3]: approximately twice as abundant
B6 | – | localize to both CB and distal axon compartments | –
B7 | – | preferentially localizes in the CB compartment | axonal localization of KIF5B by immunostaining (in words) [5]: largely excluded from axons
